“And” between values parts separate entries of the source, which are not always exact repeats. Identical values can stand only once. Like-named read-outs stand apart in the source and are kept apart here.
B1: VRC01-SA antibody-drug conjugate (antibody, human IgG1, V domains shown)
VH: QVQLVQSGGQMKKPGESMRISCRASGYEFIDCTLNWIRLAPGKRPEWMGWLKPRGGAVNYARPLQGRVTMTRDVYSDTAFLELRSLTVDDTAVYFCTRGKNCDYNWDFEHWGRGTPVIVSS
VL: EIVLTQSPGTLSLSPGETAIISCRTSQYGSLAWYQQRPGQAPRLVIYSGSTRAAGIPDRFSGSRWGPDYNLTISNLESGDFGVYYCQQYEFFGQGTKVQVDI
modifications: payload-linker SA conjugated to lysines; sites and chain not stated; payload-linker SA (short linker payload A, succinimidyl ester) conjugated to lysines; sites and chain not stated; MS DAR 3.0
B2: VRC01-SB antibody-drug conjugate (antibody, human IgG1, V domains shown)
VH: QVQLVQSGGQMKKPGESMRISCRASGYEFIDCTLNWIRLAPGKRPEWMGWLKPRGGAVNYARPLQGRVTMTRDVYSDTAFLELRSLTVDDTAVYFCTRGKNCDYNWDFEHWGRGTPVIVSS
VL: EIVLTQSPGTLSLSPGETAIISCRTSQYGSLAWYQQRPGQAPRLVIYSGSTRAAGIPDRFSGSRWGPDYNLTISNLESGDFGVYYCQQYEFFGQGTKVQVDI
modifications: payload-linker SB conjugated to lysines; sites and chain not stated; payload-linker SB (short linker payload B, succinimidyl ester) conjugated to lysines; sites and chain not stated; MS DAR 3.9
B3: VRC01-LB antibody-drug conjugate (antibody, human IgG1, V domains shown)
VH: QVQLVQSGGQMKKPGESMRISCRASGYEFIDCTLNWIRLAPGKRPEWMGWLKPRGGAVNYARPLQGRVTMTRDVYSDTAFLELRSLTVDDTAVYFCTRGKNCDYNWDFEHWGRGTPVIVSS
VL: EIVLTQSPGTLSLSPGETAIISCRTSQYGSLAWYQQRPGQAPRLVIYSGSTRAAGIPDRFSGSRWGPDYNLTISNLESGDFGVYYCQQYEFFGQGTKVQVDI
modifications: payload-linker LB conjugated to lysines; sites and chain not stated; payload-linker LB (long linker payload B, succinimidyl ester) conjugated to lysines; sites and chain not stated; MS DAR 3.8
B4: VRC01-LA-SB dual-payload antibody-drug conjugate (antibody, human IgG1, V domains shown)
VH: QVQLVQSGGQMKKPGESMRISCRASGYEFIDCTLNWIRLAPGKRPEWMGWLKPRGGAVNYARPLQGRVTMTRDVYSDTAFLELRSLTVDDTAVYFCTRGKNCDYNWDFEHWGRGTPVIVSS
VL: EIVLTQSPGTLSLSPGETAIISCRTSQYGSLAWYQQRPGQAPRLVIYSGSTRAAGIPDRFSGSRWGPDYNLTISNLESGDFGVYYCQQYEFFGQGTKVQVDI
modifications: payload-linkers LA and SB conjugated to lysines; sites and chain not stated; payload-linkers LA and SB conjugated to lysines; sites and chain not stated; MS DAR 1.6 (LA) and 1.3
B5: VRC01-LA-LB dual-payload antibody-drug conjugate (antibody, human IgG1, V domains shown)
VH: QVQLVQSGGQMKKPGESMRISCRASGYEFIDCTLNWIRLAPGKRPEWMGWLKPRGGAVNYARPLQGRVTMTRDVYSDTAFLELRSLTVDDTAVYFCTRGKNCDYNWDFEHWGRGTPVIVSS
VL: EIVLTQSPGTLSLSPGETAIISCRTSQYGSLAWYQQRPGQAPRLVIYSGSTRAAGIPDRFSGSRWGPDYNLTISNLESGDFGVYYCQQYEFFGQGTKVQVDI
modifications: payload-linkers LA and LB conjugated to lysines; sites and chain not stated; payload-linkers LA and LB conjugated to lysines; sites and chain not stated; MS DAR 1.6 (LA) and 1.2 (LB)
B6: VRC01 broadly neutralizing antibody (antibody, human IgG1, V domains shown)
VH: QVQLVQSGGQMKKPGESMRISCRASGYEFIDCTLNWIRLAPGKRPEWMGWLKPRGGAVNYARPLQGRVTMTRDVYSDTAFLELRSLTVDDTAVYFCTRGKNCDYNWDFEHWGRGTPVIVSS
VL: EIVLTQSPGTLSLSPGETAIISCRTSQYGSLAWYQQRPGQAPRLVIYSGSTRAAGIPDRFSGSRWGPDYNLTISNLESGDFGVYYCQQYEFFGQGTKVQVDI
B7: VRC01-LA antibody-drug conjugate (antibody, human IgG1, V domains shown)
VH: QVQLVQSGGQMKKPGESMRISCRASGYEFIDCTLNWIRLAPGKRPEWMGWLKPRGGAVNYARPLQGRVTMTRDVYSDTAFLELRSLTVDDTAVYFCTRGKNCDYNWDFEHWGRGTPVIVSS
VL: EIVLTQSPGTLSLSPGETAIISCRTSQYGSLAWYQQRPGQAPRLVIYSGSTRAAGIPDRFSGSRWGPDYNLTISNLESGDFGVYYCQQYEFFGQGTKVQVDI
modifications: payload-linker LA conjugated to lysines; sites and chain not stated; payload-linker LA (long linker payload A, succinimidyl ester) conjugated to lysines; sites and chain not stated; MS DAR 3.4

Columns and labels:
[1] = biological target: T1, HIV gp160 envelope glycoprotein on pseudotyped virus (clone not named) (HIV); assay: cell-based or functional assay
[2] = biological target: T1, HIV gp160 envelope glycoprotein on …; assay: cell-based or functional assay; remark: listed apart in the source

Binder | IC50 (N = 1), pseudotyped virus (PSV) infection, luciferase [1] | IC50 (N = 2), pseudotyped virus (PSV) infection, luciferase [1] | IC50 (N = 1), pseudotyped virus (PSV) infection, luciferase [2] | IC50 (N = 2), pseudotyped virus (PSV) infection, luciferase [2]
B1 | ~2.7 nM and 0.418 µg/mL | 0.226 µg/mL and ~1.5 nM |  | 
B2 | 0.617 µg/mL and ~4 nM | 0.772 µg/mL |  | 
B3 | 0.526 µg/mL and ~3.4 nM | ~1.9 nM |  | 
B4 |  |  | 0.104 µg/mL and ~0.7 nM | 0.106 µg/mL and ~0.7 nM
B5 |  |  | 0.154 µg/mL | 0.107 µg/mL and ~0.7 nM
B6 | ~667 nM | ~667 nM |  | 
B7 | 0.0753 µg/mL and ~0.5 nM | 0.0413 µg/mL and ~0.27 nM |  | 

Source: patent US20190328900A1 (GlaxoSmithKline, published 2019)
